How the values were obtained:
human CD40 on cells [1] = target: T1, human CD40 on cells (human, UniProt P25942 21-277); assay: cell-based or functional assay
human CD40 on cells [2] = target: T1, human CD40 on cells; assay: cell-based or functional assay; remark: listed apart in the source
human CD40 on cells [3] = target: T1, human CD40 on cells; assay: cell-based or functional assay; remark: listed apart in the source
[4] = target: T2, CD40-human Fc (huFc) fusion protein (Creative BioMart) (human, UniProt P25942 21-193); assay: ELISA: CD40-huFc mixed with antibody, binding to plate-bound HA-tagged CD40L; note: test concentration or dose not given here
T2 construct: bought; also called CD40-huFc; not shown: human Fc
T2 sequence (P25942 21-193 limits assumed): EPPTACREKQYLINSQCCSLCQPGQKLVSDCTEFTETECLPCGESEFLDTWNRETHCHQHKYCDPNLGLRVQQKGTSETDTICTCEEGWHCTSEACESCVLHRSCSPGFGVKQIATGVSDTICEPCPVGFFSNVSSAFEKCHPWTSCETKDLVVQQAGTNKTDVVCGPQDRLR
Text: After development with TMB (3, 3′, 5, 5′-tetramethylbenzidine) substrate, the plates were read at OD₄₅₀.
Throughout, for moDC activation (IL-12p70, pg/mL): test concentration or dose not given here.

T1 sequence (P25942 21-277 limits assumed): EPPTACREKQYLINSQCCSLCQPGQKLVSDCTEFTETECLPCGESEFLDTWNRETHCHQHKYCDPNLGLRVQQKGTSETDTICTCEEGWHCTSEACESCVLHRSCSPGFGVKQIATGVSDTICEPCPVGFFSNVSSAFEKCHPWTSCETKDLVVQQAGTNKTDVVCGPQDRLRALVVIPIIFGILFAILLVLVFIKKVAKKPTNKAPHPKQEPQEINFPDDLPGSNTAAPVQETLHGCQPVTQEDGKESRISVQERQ

B1: Humanized muAb6 #1 (antibody, V domains shown)
VH: EVQLVQSGAEVKKPGSSVKVSCKASGYTFTSYWMHWVRQAPGQGLEWIGNIDPSNGETHYNQKFKDRATLTVDKSTSTAYMELSSLRSEDTAVYYCARERIYYSGSTYDGYFDVWGQGTTVTVSS
VL: DIQLTQSPSFLSASVGDRVTITCSASSSLSYMHWYQQKPGKSPKRWIYDTSKLASGVPSRFSGSGSGTEYTLTISSLQPEDFATYYCQQWSSNPWTFGGGTKVEIK
- Maximal activation (OD655) in HEK293 blue CD40 NFκB reporter cells (human CD40 on cells [1]): 0.26 OD655
- NFκB activation EC50 (SEAP, OD655) in HEK293 blue CD40 NFκB reporter cells (human CD40 on cells [1]): 1.09 µg/mL

B2: Humanized muAb9 #1 (antibody, V domains shown)
VH: EVQLQESGPGLVKPSETLSLTCTVSGYSITSNYYWNWIRQPPGKGLEWMGYIRYDGSNNYNPSLKNRITISRDTSKNQFSLKLSSVTAADTAVYYCARLDYWGQGTTVTVSS
VL: DAVMTQTPLSLSVTPGQPASISCRSSQSLENTNGNTFLNWFLQKPGQSPQLLIYRVSNRFSGVPDRFSGSGSGTDFTLKISRVEAEDVGVYFCLQVTHVPFTFGQGTKLEIK
- Maximal activation (OD655) in HEK293 blue CD40 NFκB reporter cells (human CD40 on cells [1]): 0.26 OD655
- NFκB activation EC50 (SEAP, OD655) in HEK293 blue CD40 NFκB reporter cells (human CD40 on cells [1]): 0.19 µg/mL

B3: Humanized muAb9 #2 (antibody, V domains shown)
VH: EVQLQESGPGLVKPSETLSLTCTVSGYSITSNYYWNWIRQPPGKGLEWMGYIRYDGSNNYNPSLKNRVTISRDTSKNQFSLKLSSVTAADTAVYYCARLDYWGQGTTVTVSS
VL: DAVMTQTPLSLSVTPGQPASISCRSSQSLENTNGNTFLNWFLQKPGQSPQLLIYRVSNRFSGVPDRFSGSGSGTDFTLKISRVEAEDVGVYFCLQVTHVPFTFGQGTKLEIK
- Maximal activation (OD655) in HEK293 blue CD40 NFκB reporter cells (human CD40 on cells [1]): 0.27 OD655
- NFκB activation EC50 (SEAP, OD655) in HEK293 blue CD40 NFκB reporter cells (human CD40 on cells [1]): 0.29 µg/mL

B4: Humanized muAb9 #3 (antibody, V domains shown)
VH: EVQLQESGPGLVKPSETLSLTCTVSGYSISSNYYWNWIRQPPGKGLEWMGYIRYDGSNNYNPSLKSRVTISRDTSKNQFSLKLSSVTAADTAVYYCARLDYWGQGTTVTVSS
VL: DAVMTQTPLSLSVTPGQPASISCRSSQSLENTNGNTFLNWFLQKPGQSPQLLIYRVSNRFSGVPDRFSGSGSGTDFTLKISRVEAEDVGVYFCLQVTHVPFTFGQGTKLEIK
- Maximal activation (OD655) in HEK293 blue CD40 NFκB reporter cells (human CD40 on cells [1]): 0.27 OD655
- NFκB activation EC50 (SEAP, OD655) in HEK293 blue CD40 NFκB reporter cells (human CD40 on cells [1]): 0.18 µg/mL

B5: Humanized muAb9 #4 (antibody, V domains shown)
VH: EVQLQESGPGLVKPSETLSLTCTVSGYSITSNYYWNWIRQPPGKGLEWMGYIRYDGSNNYNPSLKNRITISRDTSKNQFSLKLSSVTAADTAVYYCARLDYWGQGTTVTVSS
VL: DAVMTQTPLSLSVTPGQPASISCRSSQSLENTNGNTFLNWYLQKPGQSPQLLIYRVSNRFSGVPDRFSGSGSGTDFTLKISRVEAEDVGVYYCLQVTHVPFTFGQGTKLEIK
- Maximal activation (OD655) in HEK293 blue CD40 NFκB reporter cells (human CD40 on cells [1]): 0.61 OD655
- NFκB activation EC50 (SEAP, OD655) in HEK293 blue CD40 NFκB reporter cells (human CD40 on cells [1]): 5.55 µg/mL

B6: Humanized muAb9 #6 (antibody, V domains shown)
VH: EVQLQESGPGLVKPSETLSLTCTVSGYSISSNYYWNWIRQPPGKGLEWMGYIRYDGSNNYNPSLKSRVTISRDTSKNQFSLKLSSVTAADTAVYYCARLDYWGQGTTVTVSS
VL: DAVMTQTPLSLSVTPGQPASISCRSSQSLENTNGNTFLNWYLQKPGQSPQLLIYRVSNRFSGVPDRFSGSGSGTDFTLKISRVEAEDVGVYYCLQVTHVPFTFGQGTKLEIK
- Maximal activation (OD655) in HEK293 blue CD40 NFκB reporter cells (human CD40 on cells [1]): 0.54 OD655
- NFκB activation EC50 (SEAP, OD655) in HEK293 blue CD40 NFκB reporter cells (human CD40 on cells [1]): 5.95 µg/mL

B7: CP-870,893 (antibody, human IgG2, kappa, V domains shown)
VH: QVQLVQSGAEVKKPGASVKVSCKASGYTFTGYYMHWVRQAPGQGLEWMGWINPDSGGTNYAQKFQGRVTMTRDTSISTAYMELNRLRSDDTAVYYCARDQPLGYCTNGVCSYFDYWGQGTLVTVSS
VL: DIQMTQSPSSVSASVGDRVTITCRASQGIYSWLAWYQQKPGKAPNLLIYTASTLQSGVPSRFSGSGSGTDFTLTISSLQPEDFATYYCQQANIFPLTFGGGTKVEIKR
- NFκB activity EC50; HEK293 blue CD40 reporter cells co-cultured with CHO cells expressing CD16F (human CD40 on cells [2]): 30 pM
- NFκB activity EC50; HEK293 blue CD40 reporter cells co-cultured with CHO cells expressing CD16V (human CD40 on cells [2]): 20 pM
- NFκB activity EC50; HEK293 blue CD40 reporter cells co-cultured with CHO cells expressing CD32a (human CD40 on cells [2]): 20 pM
- NFκB activity EC50; HEK293 blue CD40 reporter cells co-cultured with CHO cells expressing CD32b (human CD40 on cells [2]): 20 pM
- NFκB activity EC50; HEK293 blue CD40 reporter cells co-cultured with CHO cells expressing CD64 (human CD40 on cells [2]): 20 pM
- NFκB activity EC50; HEK293 blue CD40 reporter cells co-cultured with FcγR negative CHO cells (human CD40 on cells [2]): 30 pM

B8: Humanized muAb6 #2 (antibody, V domains shown)
VH: EVQLVQSGAEVKKPGSSVKVSCKASGYTFTSYWMHWVRQAPGQGLEWIGNIDPSNGETHYNQKFKDRVTITVDKSTSTAYMELSSLRSEDTAVYYCARERIYYSGSTYDGYFDVWGQGTTVTVSS
VL: DIQLTQSPSFLSASVGDRVTITCSASSSLSYMHWYQQKPGKSPKRWIYDTSKLASGVPSRFSGSGSGTEYTLTISSLQPEDFATYYCQQWSSNPWTFGGGTKVEIK
- Maximal activation (OD655) in HEK293 blue CD40 NFκB reporter cells (human CD40 on cells [1]): 0.2 OD655
- NFκB activation EC50 (SEAP, OD655) in HEK293 blue CD40 NFκB reporter cells (human CD40 on cells [1]): 1.21 µg/mL

B9: AD163.7.2 (antibody, V domains shown)
VH: QVQLQQSGPELVKSGASVKISCKASGYTFTDYYINWVKQRPGQGLEWIGWIFPGSGSVYCNEQFKGQATLTVDRSSSTAYMLLSSLTSEDSAVYFCASSLGKFAYWGQGTLVTVSA
VL: DIVMTQSQKFMSTTVGDRVSITCKASQSVVTAVAWYQQKPGQSPKLLIYSASNRYTGVPDRFTGSGSGTDFALTIRTMQSEDLADYFCQQYSSYPYTFGGGTKLEIK
notes: mouse hybridoma monoclonal; also called muAb8
- moDC activation (IL-12p70, pg/mL) (human CD40 on cells [3]): 905 pg/mL
- OD450 Ratio [4]: 0.08 ratio to isotype control
- OD450 with anti-CD40 antibody [4]: 0.066 OD450

B10: AD163.9.3 (antibody, V domains shown)
VH: QVQLQQPGAELVKPGASVKMSCKASGYTFTSYWITWVKQRPGQGLEWIGEINPGSGSTNYNEKFKSKATLTVDTSSSTAYMQLSSLTSEDSAVYYCARNRGTGDYWGQGTTLTVSS
VL: DVVMTQTPLSLPVSLGDQASISCRSSQSLVHSYGNTYLHWYLQKPGQSPKFLIYKVSNRISGVPDRLSGSGSGTDFTLKISRVEPEDLGVYFCSQSTHVPYTFGGGTKLEIK
notes: mouse hybridoma monoclonal; also called muAb1
- moDC activation (IL-12p70, pg/mL) (human CD40 on cells [3]): 2220 pg/mL
- OD450 Ratio [4]: 2.22 ratio to isotype control
- OD450 with anti-CD40 antibody [4]: 1.78 OD450

B11: AD163.10.7 (antibody, V domains shown)
VH: LVQPGGSLSLSCAASGFTFSDYYMSWVRQPPGKALEWLGFIRNKANGYTTEFSASVKGRFTISRDNSQSILYLQMNALRAEDSATYYCARYGGLRQGWYFDVWGTGTTVTVSS
VL: DIQMTQTTSSLSASLGDRVTISCRASQDIRNYLNWYQQKPDGTVKLLIYYTSRLHSGVPSRFSGSGSGTDYSLTISNLEQEDIATYFCQQGKTLPWTFGGGSKLEMK
notes: mouse hybridoma monoclonal; also called muAb4
- moDC activation (IL-12p70, pg/mL) (human CD40 on cells [3]): 1320 pg/mL
- OD450 Ratio [4]: 1.68 ratio to isotype control
- OD450 with anti-CD40 antibody [4]: 1.34 OD450

B12: AD163.162.1 (antibody, V domains shown)
VH: QVQLQQPGAELVRPGSSVKLSCKASGYTFTSYWMHWVKQRPIQGLEWIGNIDPSNGETHYNQKFKDKATLTVDKSSSTAYMQLSSLTSEDSAVYYCARERIYYSGSTYDGYFDVWGTGTTVTVSS
VL: QIVLTQSPAIMSASPGEKVTMTCSASSSLSYMHWYQQKSGTSPKRWIYDTSKLASGVPARFSGSGSGTSYSLTISSMEAEDAATYYCQQWSSNPWTFGGGTKLEIK
notes: mouse hybridoma monoclonal; also called muAb6
- moDC activation (IL-12p70, pg/mL) (human CD40 on cells [3]): 2160 pg/mL
- OD450 Ratio [4]: 0.57 ratio to isotype control
- OD450 with anti-CD40 antibody [4]: 0.455 OD450

B13: Humanized muAb6 #3 (antibody, V domains shown)
VH: EVQLVQSGAEVKKPGSSVKVSCKASGYTFTSYWMHWVRQAPGQGLEWIGNIDPSNGETHYAQKFQGRVTITVDKSTSTAYMELSSLRSEDTAVYYCARERIYYSGSTYDGYFDVWGQGTTVTVSS
VL: DIQLTQSPSFLSASVGDRVTITCSASSSLSYMHWYQQKPGKSPKRWIYDTSKLASGVPSRFSGSGSGTEYTLTISSLQPEDFATYYCQQWSSNPWTFGGGTKVEIK
- Maximal activation (OD655) in HEK293 blue CD40 NFκB reporter cells (human CD40 on cells [1]): 0.32 OD655
- NFκB activation EC50 (SEAP, OD655) in HEK293 blue CD40 NFκB reporter cells (human CD40 on cells [1]): 4.31 µg/mL

— patent publication US20210277137A1 (AbbVie / Abbott, published 2021)
